Reference: paper PMC3229523, “Identification of Lactoferricin B Intracellular Targets Using an Escherichia coli Proteome Chip” (PLoS ONE, 2011)
Ends that are not written are not given here. * marks the point of attachment. Biotin = O=C1N[C@H]2[C@H](CS[C@H]2CCCCC(=O)*)N1

How the values were obtained:
Test in all cases: peptide or protein array; E. coli proteome chip: purified His-tagged proteins printed in duplicate on Fullmoon slides, blocked with 1% BSA; 10 nM N-terminal biotinylated LfcinB with 1% BSA, room temperature, 1 h; detected with DyLight 649-labeled streptavidin, ratio to DyLight 549-labeled anti-His antibody; ProCAT normalisation, local cut-off; triplicate chips
Settings in all cases: both partners purified
PurC = biological target: T1, PurC (E. coli K-12, UniProt P0A7D7 1-237)
T1 construct: PurC, E. coli K-12
T1 sequence (looked up): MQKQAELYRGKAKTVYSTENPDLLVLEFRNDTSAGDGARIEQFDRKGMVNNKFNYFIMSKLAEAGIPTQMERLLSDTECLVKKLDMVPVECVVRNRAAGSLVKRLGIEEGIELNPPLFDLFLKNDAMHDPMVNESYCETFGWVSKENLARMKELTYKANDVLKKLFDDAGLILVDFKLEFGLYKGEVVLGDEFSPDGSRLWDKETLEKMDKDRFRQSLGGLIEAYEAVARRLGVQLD

YrfI = biological target: T2, YrfI (E. coli K-12, UniProt P0A6Y5 1-292)
T2 construct: YrfI, E. coli K-12
T2 sequence (looked up): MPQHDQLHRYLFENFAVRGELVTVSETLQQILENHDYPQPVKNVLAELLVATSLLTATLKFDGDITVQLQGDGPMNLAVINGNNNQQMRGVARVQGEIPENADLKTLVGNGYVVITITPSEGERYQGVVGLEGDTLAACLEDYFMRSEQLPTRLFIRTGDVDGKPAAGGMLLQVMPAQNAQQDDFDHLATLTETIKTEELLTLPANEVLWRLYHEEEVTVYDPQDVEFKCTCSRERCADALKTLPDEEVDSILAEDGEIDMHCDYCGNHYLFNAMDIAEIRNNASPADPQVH

AgaY = biological target: T3, AgaY (E. coli K-12, UniProt P0AB74 1-286)
T3 construct: AgaY, E. coli K-12

RfaS = biological target: T4, RfaS (E. coli K-12, UniProt P27126 1-311)
T4 construct: RfaS, E. coli K-12
T4 sequence (looked up): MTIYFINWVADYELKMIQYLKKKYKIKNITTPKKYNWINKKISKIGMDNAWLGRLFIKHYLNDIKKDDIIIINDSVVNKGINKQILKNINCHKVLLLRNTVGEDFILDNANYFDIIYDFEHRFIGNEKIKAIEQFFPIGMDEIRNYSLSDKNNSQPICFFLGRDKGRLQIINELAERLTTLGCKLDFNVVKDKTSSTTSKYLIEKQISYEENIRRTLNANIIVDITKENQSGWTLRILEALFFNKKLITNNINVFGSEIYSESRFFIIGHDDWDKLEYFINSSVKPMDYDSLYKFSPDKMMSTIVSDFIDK

AroD = biological target: T5, AroD (E. coli K-12, UniProt P05194 1-252)
T5 construct: AroD, E. coli K-12
T5 sequence (looked up): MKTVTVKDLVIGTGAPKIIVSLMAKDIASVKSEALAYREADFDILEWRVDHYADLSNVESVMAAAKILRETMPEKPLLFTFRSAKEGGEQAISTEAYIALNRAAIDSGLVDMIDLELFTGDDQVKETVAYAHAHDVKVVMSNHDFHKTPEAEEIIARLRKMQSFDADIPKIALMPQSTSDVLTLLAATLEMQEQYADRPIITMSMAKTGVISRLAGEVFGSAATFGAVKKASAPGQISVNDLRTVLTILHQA

Rob = biological target: T6, Rob (E. coli K-12, UniProt P0ACI0 1-289)
T6 construct: Rob, E. coli K-12
T6 sequence (looked up): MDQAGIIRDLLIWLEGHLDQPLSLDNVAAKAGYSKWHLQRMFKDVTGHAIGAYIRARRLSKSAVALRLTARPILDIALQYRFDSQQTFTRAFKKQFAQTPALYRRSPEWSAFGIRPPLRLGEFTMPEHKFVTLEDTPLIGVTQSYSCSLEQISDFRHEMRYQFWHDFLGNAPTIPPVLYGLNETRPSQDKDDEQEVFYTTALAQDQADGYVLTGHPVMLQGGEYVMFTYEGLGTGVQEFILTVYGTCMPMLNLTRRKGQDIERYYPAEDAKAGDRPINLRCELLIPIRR

YjdK = biological target: T7, YjdK (E. coli K-12, UniProt P0AF61 1-98)
T7 construct: YjdK, E. coli K-12
T7 sequence (looked up): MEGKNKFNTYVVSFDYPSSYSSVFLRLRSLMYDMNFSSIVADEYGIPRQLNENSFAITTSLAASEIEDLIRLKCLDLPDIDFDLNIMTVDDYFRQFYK

Measured: binding result

T3 sequence (P0AB74 whole entry): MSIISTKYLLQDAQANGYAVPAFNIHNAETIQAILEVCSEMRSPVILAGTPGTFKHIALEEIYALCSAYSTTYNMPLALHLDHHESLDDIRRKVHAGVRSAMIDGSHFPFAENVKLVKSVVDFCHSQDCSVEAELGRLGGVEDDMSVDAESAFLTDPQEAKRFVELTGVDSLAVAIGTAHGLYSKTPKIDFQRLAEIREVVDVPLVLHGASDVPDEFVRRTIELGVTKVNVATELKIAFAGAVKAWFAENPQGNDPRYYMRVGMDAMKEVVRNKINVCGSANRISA

B1: N-terminal biotinylated Lactoferricin B (peptide, UniProt P24627 36-60, looked up)
peptide: Biotin-FKCRRWQWRMKKLGAPSITCVRRAF
modifications: ends and bridges not checked
notes: lactoferricin B (LfcinB), cationic antimicrobial peptide of 25 amino acids; also called biotinylated LfcinB; biotin-labeled LfcinB; source: bought: Kelowna Inc
binds: all assays above
